# Target: full length human CD47 (NCBI #NP_942088.1) on 293F-CD47 cells (human) (UniProt Q08722)
# Assay: cell-based blocking FACS on 293F-CD47 cells, blocked ligand biotin-labeled human CD172a-Fc, MFI
row,IC50,Binder
1,1.84 nM,SIRPαV2D1M1-Fc (IgG2) (Fc fusion) EEELQVIQPDKSVSVAAGESAILHCTITSLIPVGPIQWFRGAGPARELIYNQREGHFPRVTTVSETTKRENMDFSISISNITPADAGTYYCVKFRKGSPDTEFKSGAGTELSVRAKPSAPVVSGPAARATPGGGGSGGGGSERKCCVECPPCPAPPVAGPSVFLFPPKPKDTLMISRTPEVTCVVVDVSHEDPEVQFNWYVDGVEVHNAKTKPREEQFNSTFRVVSVLTVVHQDWLNGKEYKCKVSNKGLPAPIEKTISKTKGQPREPQVYTLPPSREEMTKNQVSLTCLVKGFYPSDIAVEWESNGQPENNYKTTPPMLDSDGSFFLYSKLTVDKSRWQQGNVFSCSVMHEALHNHYTQKSLSLSPGK
2,2.37 nM,SIRPαV2D1M2-Fc (IgG2) (Fc fusion) EEELQVIQPDKSVSVAAGESAILHCTITSLIPVGPIQWFRGAGPARELIYNQREGHFPRVTTVSETTRRENMDFSISISNITPADAGTYYCVKFRKGSPDTEVKSGAGTELSVRAKPSAPVVSGPAARATPGGGGSGGGGSERKCCVECPPCPAPPVAGPSVFLFPPKPKDTLMISRTPEVTCVVVDVSHEDPEVQFNWYVDGVEVHNAKTKPREEQFNSTFRVVSVLTVVHQDWLNGKEYKCKVSNKGLPAPIEKTISKTKGQPREPQVYTLPPSREEMTKNQVSLTCLVKGFYPSDIAVEWESNGQPENNYKTTPPMLDSDGSFFLYSKLTVDKSRWQQGNVFSCSVMHEALHNHYTQKSLSLSPGK
3,1.8 nM,"BSI038×S-004 (bispecific antibody, human IgG2, kappa) heavy: EEELQVIQPDKSVSVAAGESAILHCTITSLIPVGPIQWFRGAGPARELIYNQREGHFPRVTTVSETTKRENMDFSISISNITPADAGTYYCVKFRKGSPDTEFKSGAGTELSVRAKPSAPVVSGPAARATPGGGGSGGGGSEVQLVESGGGLVKPGGSLRLSCAASGFTFSNYGISWVRQAPGKGLEWVSSISSGGDNTYYPDNVKGRFTISRDNAKNSLYLQMNSLRAEDTAVYYCARAGEKAMDYWGQGTLVTVSSASTKGPSVFPLAPCSRSTSESTAALGCLVKDYFPEPVTVSWNSGALTSGVHTFPAVLQSSGLYSLSSVVTVPSSNFGTQTYTCNVDHKPSNTKVDKTVERKCCVECPPCPAPPVAGPSVFLFPPKPKDTLMISRTPEVTCVVVDVSHEDPEVQFNWYVDGVEVHNAKTKPREEQFNSTFRVVSVLTVVHQDWLNGKEYKCKVSNKGLPAPIEKTISKTKGQPREPQVYTLPPSREEMTKNQVSLTCLVKGFYPSDIAVEWESNGQPENNYKTTPPMLDSDGSFFLYSKLTVDKSRWQQGNVFSCSVMHEALHNHYTQKSLSLSPGK light: EIVLTQSPATLSLSPGERATLSCRASQTINNNLHWYQQKPGQAPRLLIKYASQSISGIPARFSGSGSGTDFTLTISSLEPEDFAVYFCQQFSSWPLTFGGGTKVEIKRTVAAPSVFIFPPSDEQLKSGTASVVCLLNNFYPREAKVQWKVDNALQSGNSQESVTEQDSKDSTYSLSSTLTLSKADYEKHKVYACEVTHQGLSSPVTKSFNRGEC"
4,1.73 nM,"BSI038×S-005 (bispecific antibody, human IgG2, kappa) heavy: EEELQVIQPDKSVSVAAGESAILHCTITSLIPVGPIQWFRGAGPARELIYNQREGHFPRVTTVSETTRRENMDFSISISNITPADAGTYYCVKFRKGSPDTEVKSGAGTELSVRAKPSAPVVSGPAARATPGGGGSGGGGSEVQLVESGGGLVKPGGSLRLSCAASGFTFSNYGISWVRQAPGKGLEWVSSISSGGDNTYYPDNVKGRFTISRDNAKNSLYLQMNSLRAEDTAVYYCARAGEKAMDYWGQGTLVTVSSASTKGPSVFPLAPCSRSTSESTAALGCLVKDYFPEPVTVSWNSGALTSGVHTFPAVLQSSGLYSLSSVVTVPSSNFGTQTYTCNVDHKPSNTKVDKTVERKCCVECPPCPAPPVAGPSVFLFPPKPKDTLMISRTPEVTCVVVDVSHEDPEVQFNWYVDGVEVHNAKTKPREEQFNSTFRVVSVLTVVHQDWLNGKEYKCKVSNKGLPAPIEKTISKTKGQPREPQVYTLPPSREEMTKNQVSLTCLVKGFYPSDIAVEWESNGQPENNYKTTPPMLDSDGSFFLYSKLTVDKSRWQQGNVFSCSVMHEALHNHYTQKSLSLSPGK light: EIVLTQSPATLSLSPGERATLSCRASQTINNNLHWYQQKPGQAPRLLIKYASQSISGIPARFSGSGSGTDFTLTISSLEPEDFAVYFCQQFSSWPLTFGGGTKVEIKRTVAAPSVFIFPPSDEQLKSGTASVVCLLNNFYPREAKVQWKVDNALQSGNSQESVTEQDSKDSTYSLSSTLTLSKADYEKHKVYACEVTHQGLSSPVTKSFNRGEC"
